In patent publication US8293529B2, “Method for inducing differentiation of pluripotent stem cells into cardiomyocytes” (Daiichi Sankyo Company, Limited, priority 2006, dated 2012):

Tests used:
human ES cells = conditions: rises from 15% without treatment; cited from earlier work
mouse ES cells [1] = test: Appearance rate of EBs exhibiting spontaneous beating; format: cell-based; conditions: for occurrence of beating EBs: Wnt proteins added at 10 ng/mL to 50 ng/mL; for appearance rate of beating EBs: recombinant protein added at 1 ng/mL to 100 ng/mL
Description: Culture for inducing differentiation of ES cells into cardiomyocytes or neurons was accomplished in a routine manner as follows. ES cells were suspended in LIF-free medium, and the resulting suspension was seeded at 500 cells/50 μL per well of a commercially available 96-well culture plate for spheroid formation (Sumilon Celltight Spheroid; Sumitomo Bakelite Co., Ltd., Japan).
In the early stage of differentiation in ES cells, transient elevations in expression of various Wnt genes were observed prior to the appearance of cardiomyocytes. Then, ES cells at this stage were treated with recombinant Wnt proteins to study the myocardial differentiation-inducing effect of the proteins. Induction of ES cell differentiation was accomplished in the same manner as used in Example 1, except that some of the experimental groups were cultured in medium containing a commercially available recombinant WNT-1 (Peprotech), Wnt-3a (R&D systems) or Wnt-5a (R&D systems) protein. Treatment of ES cells in medium supplemented with a recombinant protein of canonical Wnt such as WNT-1 is hereinafter referred to as “Wnt treatment.”
The above canonical Wnt protein treatment is known to inhibit the action of GSK3β within cells and thereby promote stabilization of β-catenin and its transcription activation ability. Then, further studies were performed to confirm that treatment with various drugs capable of promoting stabilization of β-catenin and its transcription activation ability produced a myocardial differentiation-inducing effect on ES cells, as in the case of Wnt treatment. As drugs capable of promoting stabilization of β-catenin and its transcription activation ability, the following five commercially available compounds were used: GSK3β inhibitors BIO (Calbiochem), GSK3β inhibitor VII (Calbiochem), cell-permeable GSK3β peptide inhibitor (L803-mts; Calbiochem) and SB216763 (Biomol), as well as a Wnt agonist (Calbiochem) that promotes the transcription activation ability of β-catenin without GSK3β inhibition. ES cells were induced to differentiate in the same manner as used in the above Examples, and cultured in medium containing the above compounds during the time period between 48 and 120 hours ([…]) after induction of differentiation, as in the case of recombinant Wnt proteins.

cmES cells = test: Immunohistochemical staining of marker proteins in EBs from cmES cells; format: cell-based, common marmoset; conditions: EBs at 16 days after induction of differentiation
Description: Subsequently, immunohistochemical staining was performed in the same manner as used in Example 2 to confirm that beating cells developed in EBs from the Wnt-treated groups were cardiomyocytes producing specific marker proteins. From EBs in the Wnt-treated groups (Wnt-3a, WNT-1) at 16 days after induction of differentiation, frozen sections were prepared and reacted with anti-sarcomeric myosin antibody, anti-GATA-4 antibody or anti-Nkx-2.5 antibody as a primary antibody. After color reaction, these sections were observed under an optical microscope.

mouse ES cells [2] = test: Wnt gene expression during induction of differentiation in ES cells (real-time PCR); format: cell-based; conditions: BMP antagonist treatment 15 ng/mL, 3 days before and immediately after induction; 72 hours after induction of differentiation; vs untreated group
Description: Various Wnt genes were studied for their expression during differentiation in mouse ES cells. For use in experiments, mouse ES cells were passaged and maintained in an undifferentiated state according to the methods as described in “Manipulating the Mouse Embryo: A Laboratory Manual” (Hogan et al., eds., Cold Spring Harbor Laboratory Press, 1994) and “Embryonic Stem Cells: Methods and Protocols” (Turksen ed., Humana Press, 2002) by using Knockout-DMEM (Invitrogen) medium containing 20% fetal bovine serum, 2 mmol/L L-glutamine and 0.1 mmol/L 2-mercaptoethanol (hereinafter referred to as ESM), supplemented with 1000 U/mL LIF (ESGRO; Chemicon). […]
The EBs thus prepared were collected periodically, and total RNA was prepared with an RNeasy mini kit (Qiagen), followed by DNase treatment. cDNA was synthesized from the DNase-treated total RNA (1 μg) using a SuperScript™ First-Strand Synthesis System for RT-PCR (Invitrogen). Analysis of gene expression was performed with an ABI PRISM 7700 (PE Applied Biosystems) by using a real-time polymerase chain reaction (PCR) quantification system with Lux primers to examine the expression level of each gene. The real-time PCR quantification was accomplished by using the above cDNA as a template and using Platinum Quantitative PCR SuperMix-UDG (Invitrogen) according to the instructions attached thereto. […]

mouse ES cells [3] = test: Immunohistochemical staining of cardiomyocyte-specific marker proteins in EBs; format: cell-based; conditions: EBs at 10 days after induction of differentiation
Description: Subsequently, immunohistochemical staining was performed to confirm that beating cells developed in EBs from the Wnt-treated groups produced cardiomyocyte-specific marker proteins. EBs in the Wnt-treated group (Wnt^48˜120h group) at 10 days after induction of differentiation were freshly embedded in a compound for preparing frozen sections (OCT Compound, Sakura Finetek USA Inc.) and then frozen with liquid nitrogen. The frozen samples were sectioned at 6 μm of thickness and attached on glass slides. These frozen sections were reacted with anti-sarcomeric myosin antibody (MF20; American Type Culture Collection), anti-GATA-4 antibody (C-20; Santa Cruz) or anti-Nkx-2.5 antibody (N-19; Santa Cruz) as a primary antibody and then reacted with a horseradish peroxidase-labeled secondary antibody (Bio-RAD), and finally subjected to a color reaction with ACE (3-amino-9-ethylcarbazole) substrate solution (Nichirei Corporation, Japan) and observed under an optical microscope.

## Nc1ncn([C@@H]2O[C@H](CO)[C@@H](O)[C@H]2O)c(=O)n1 [5-azacytidine]
Human ES cells
  percentage of troponin I-positive cells (candidate cardiomyocytes) in EBs: 44%

B1: Wnt-5a: commercially available recombinant mouse-derived Wnt-5a protein (R&D systems) (protein, listed as Mus musculus)
chain: MKKPIGILSPGVALGTAGGAMSSKFFLMALATFFSFAQVVIEANSWWSLGMNNPVQMSEVYIIGAQPLCSQLAGLSQGQKKLCHLYQDHMQYIGEGAKTGIKECQYQFRHRRWNCSTVDNTSVFGRVMQIGSRETAFTYAVSAAGVVNAMSRACREGELSTCGCSRARPKDLPRDWLWGGCGDNIDYGHPFAKEFVDARERERIHAKGSYESARILMNLHNNEAGRRTVYNLADVACKCHGVSGSCSLKTCWLQLADFRKVGDALKEKYDSAAAMRLNSRGKLVQVNSRFNSPTTQDLVYIDPSPDYCVRNESTGSLGTQGRLCNKTSEGMDGCELMCCGRGYDQFKTVQTERCHCKFHWCCYVKCKKCTEIVDQFVCK
Mouse ES cells [1]
  occurrence of beating EBs: very good occurrence of beating EBs
  appearance rate of beating EBs: significantly higher than in the untreated group

B2: WNT-1: commercially available recombinant human-derived WNT-1 protein (Peprotech), canonical Wnt (protein, listed as Mus musculus)
chain: MGLWALLPSWVSTTLLLALTALPAALAANSSGRWWGIVNIASSTNLLTDSKSLQLVLEPSLQLLSRKQRRLIRQNPGILHSVSGGLQSAVRECKWQFRNRRWNCPTAPGPHLFGKIVNRGCRETAFIFAITSAGVTHSVARSCSEGSIESCTCDYRRRGPGGPDWHWGGCSDNIDFGRLFGREFVDSGEKGRDLRFLMNLHNNEAGRTTVFSEMRQECKCHGMSGSCTVRTCWMRLPTLRAVGDVLRDRFDGASRVLYGNRGSNRASRAELLRLEPEDPAHKPPSPHDLVYFEKSPNFCTYSGRLGTAGTAGRACNSSSPALDGCELLCCGRGHRTRTQRVTERCNCTFHWCCHVSCRNCTHTRVLHECL
cmES cells
  cells positive for sarcomeric myosin, GATA-4 and Nkx-2.5: the great majority of EB-constituting cells were found to be positive
Mouse ES cells [1]
  occurrence of beating EBs: very good occurrence of beating EBs
  appearance rate of beating EBs: significantly higher than in the untreated group

B3: Chordin: commercially available recombinant Chordin protein (R&D systems), BMP antagonist (protein, UniProt Q9H2X0 27-955, looked up)
Chordin: AGPEPPVLPIRSEKEPLPVRGAAGCTFGGKVYALDETWHPDLGEPFGVMRCVLCACEAPQWGRRTRGPGRVSCKNIKPECPTPACGQPRQLPGHCCQTCPQERSSSERQPSGLSFEYPRDPEHRSYSDRGEPGAEERARGDGHTDFVALLTGPRSQAVARARVSLLRSSLRFSISYRRLDRPTRIRFSDSNGSVLFEHPAAPTQDGLVCGVWRAVPRLSLRLLRAEQLHVALVTLTHPSGEVWGPLIRHRALAAETFSAILTLEGPPQQGVGGITLLTLSDTEDSLHFLLLFRGLLEPRSGGLTQVPLRLQILHQGQLLRELQANVSAQEPGFAEVLPNLTVQEMDWLVLGELQMALEWAGRPGLRISGHIAARKSCDVLQSVLCGADALIPVQTGAAGSASLTLLGNGSLIYQVQVVGTSSEVVAMTLETKPQRRDQRTVLCHMAGLQPGGHTAVGICPGLGARGAHMLLQNELFLNVGTKDFPDGELRGHVAALPYCGHSARHDTLPVPLAGALVLPPVKSQAAGHAWLSLDTHCHLHYEVLLAGLGGSEQGTVTAHLLGPPGTPGPRRLLKGFYGSEAQGVVKDLEPELLRHLAKGMASLMITTKGSPRGELRGQVHIANQCEVGGLRLEAAGAEGVRALGAPDTASAAPPVVPGLPALAPAKPGGPGRPRDPNTCFFEGQQRPHGARWAPNYDPLCSLCTCQRRTVICDPVVCPPPSCPHPVQAPDQCCPVCPEKQDVRDLPGLPRSRDPGEGCYFDGDRSWRAAGTRWHPVVPPFGLIKCAVCTCKGGTGEVHCEKVQCPRLACAQPVRVNPTDCCKQCPVGSGAHPQLGDPMQADGPRGCRFAGQWFPESQSWHPSVPPFGEMSCITCRCGAGVPHCERDDCSLPLSCGSGKESRCCSRCTAHRRPAPETRTDPELEKEAEGS
Mouse ES cells [2]
  expression levels of the Wnt genes (Wnt-3, Wnt-3a, Wnt-8a): significantly higher than those of the untreated group
Mouse ES cells [1]; Wnt 48-96 h and 48-120 h groups, Chordin-treated EBs
  regions of EBs exhibiting beating: beating throughout virtually all regions of their surface layer

B4: DAN: commercially available recombinant DAN protein (R&D systems), BMP antagonist (protein, UniProt P41271 17-181, looked up)
Neuroblastoma suppressor of …: AAPPPINKLALFPDKSAWCEAKNITQIVGHSGCEAKSIQNRACLGQCFSYSVPNTFPQSTESLVHCDSCMPAQSMWEIVTLECPGHEEVPRVDKLVEKILHCSCQACGKEPSHEGLSVYVQGEDGPGSQPGTHPHPHPHPHPGGQTPEPEDPPGAPHTEEEGAED
Mouse ES cells [3]
  cells positive for sarcomeric myosin, Nkx-2.5 and GATA-4: the great majority of EB-constituting cells were found to be positive
Mouse ES cells [2]
  expression levels of the Wnt genes (Wnt-3, Wnt-3a, Wnt-8a): significantly higher than those of the untreated group
